According to patent US20240239899A1 (Memorial Sloan Kettering, published 2024):
Each block holds one binder with its values, some of them ahead of it.

Experiments:
[1] = biological target: T1, HLA-A2 molecule on T2 cells (T2 cells alone, not pulsed) (human); assay: flow cytometry, unpulsed T2 cells, secondary anti-His-tag mAb
T1 construct: Stands both for the target 'T2 cells alone' and for the partner of the pulsed peptides in the T2 stabilization assays; also called HLA-A02

[2] = biological target: CCCK phosphopeptide/HLA-A2 complex on T2 cells (human, phosphoserine at position 7); assay: flow cytometry, T2 cells pulsed with 20 µg/ml peptide (FIG. 11)
[3] = biological target: b-catenin phosphopeptide/HLA-A2 complex on T2 cells (human, phosphoserine at position 4); assay: as above
[4] = biological target: T1, HLA-A2 molecule on T2 cells (T2 cells …); assay: flow cytometry, titration of 6B1 on unpulsed T2 cells (FIG. 1C)

binding result [1]: no binding (tested: 1 or 0.1 µg/ml)
B1: 6B1 BisAb h2+2 (L2K scFv inserted into the upper hinge of 6B1 IgG1) (bispecific antibody)
heavy: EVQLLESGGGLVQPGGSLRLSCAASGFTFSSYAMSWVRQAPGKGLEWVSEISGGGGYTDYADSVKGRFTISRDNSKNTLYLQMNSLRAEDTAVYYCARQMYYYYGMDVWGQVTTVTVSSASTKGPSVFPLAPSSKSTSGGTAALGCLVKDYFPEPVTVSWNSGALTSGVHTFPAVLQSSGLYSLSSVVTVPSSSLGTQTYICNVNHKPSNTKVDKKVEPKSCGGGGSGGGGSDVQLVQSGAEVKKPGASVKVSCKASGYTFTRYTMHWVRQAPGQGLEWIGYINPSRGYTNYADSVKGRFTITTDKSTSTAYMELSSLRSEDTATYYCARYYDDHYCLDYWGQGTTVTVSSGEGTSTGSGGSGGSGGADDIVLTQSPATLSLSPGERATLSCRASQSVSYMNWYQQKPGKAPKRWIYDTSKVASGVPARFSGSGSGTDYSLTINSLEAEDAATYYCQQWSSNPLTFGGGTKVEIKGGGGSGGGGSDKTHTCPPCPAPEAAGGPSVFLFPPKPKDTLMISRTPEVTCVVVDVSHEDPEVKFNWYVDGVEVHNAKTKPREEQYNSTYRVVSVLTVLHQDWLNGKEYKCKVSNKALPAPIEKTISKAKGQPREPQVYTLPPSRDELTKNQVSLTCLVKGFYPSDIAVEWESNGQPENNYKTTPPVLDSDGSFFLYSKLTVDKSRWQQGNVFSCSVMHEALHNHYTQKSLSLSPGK
light: EIVLTQSPGTLSLSPGERATLSCRASQSVSANYLAWYQQKPGQAPRLLIYGASSRATGIPDRFSGSGSGTDFTLTISRLEPEDFAVYYCQQSYQRPLTFGQGTKVEIKRTVAAPSVFIFPPSDEQLKSGTASVVCLLNNFYPREAKVQWKVDNALQSGNSQESVTEQDSKDSTYSLSSTLTLSKADYEKHKVYACEVTHQGLSSPVTKSFNRGEC

binding result [1]: no binding (tested: 1 or 0.1 µg/ml)
B2: 6B1 BisAb C2+2 (L2K scFv fused to the C-terminus of the 6B1 IgG1 heavy chain) (bispecific antibody)
heavy: not shown
light: B1 light
notes: copies: 2 + 2

binding result [2]: no binding
binding result [3]: no binding
B3: 6B1 mAb (TCR mimic, full length human IgG1) (antibody, V domains shown)
VH: EVQLLESGGGLVQPGGSLRLSCAASGFTFSSYAMSWVRQAPGKGLEWVSEISGGGGYTDYADSVKGRFTISRDNSKNTLYLQMNSLRAEDTAVYYCARQMYYYYGMDVWGQVTTVTVSS
VL: EIVLTQSPGTLSLSPGERATLSCRASQSVSANYLAWYQQKPGQAPRLLIYGASSRATGIPDRFSGSGSGTDFTLTISRLEPEDFAVYYCQQSYQRPLTFGQGTKVEIK
notes: Full length human IgG1; Conjugated to APC for direct staining of tumor cell lines; also called mAb 6B1; Mab 6B1
binding result [4]: no binding (tested: 10 µg/ml to 0.1 µg/ml)
